Experimental data as given in the supplement of paper PMC12764529.
± gives the half width of the 95% confidence interval.

Experiments:
[1] = folding stability dG unfold from trypsin proteolysis; higher = more stable
In short: (§1)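 Designed mini-proteins with no cysteine and under 80 residues were kept only if AlphaFold2 dimer inter-PAE was above 15. In a PA-tagged cDNA display construct, they were digested with trypsin and chymotrypsin and then sequenced. K50 was inferred by Bayesian fitting of counts, and unfolding free energy was derived per protease or combined against a sequence-predicted unfolded-state K50 and a shared folded-state K50.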

[2] = folding stability dG unfold (combined trypsin and chymotrypsin); higher = more stable
In short: as §1

[3] = folding stability dG unfold from chymotrypsin proteolysis; higher = more stable
In short: as §1

Sequence	folding stability dG unfold [1] [kcal/mol]	folding stability dG unfold [2] [kcal/mol]	folding stability dG unfold [3] [kcal/mol]
SAGGKKKKVITVEVPPEATAEELLAALKKADKVFIRTKDGKVREIKVGEKVSPEELKVKPGDTVEIYVSAGG [r13_399_TrROS_Hall]	1.12 ± 0.12	1.53 ± 0.24	1.74 ± 0.096
SAGGSAGGSAGGKKPVKITEIHRNPGPNWIRIRIPGNGRPIPIPVPPGKKLTLEDALDFSAGGSAGGSAGGS [r10_844_TrROS]	-0.648 ± 0.38	-0.304 ± 0.19	-0.0211 ± 0.29
SAGGSDVKTYTFVGIDPETGELVETTFRVTPLVPPVPVSVSVSLTLDVDPDGNLHLSLSVSVELGGSAGGSA [r2_326_TrMRF]	3.21 ± 0.11	4.37 ± 0.12	4.74 ± 0.081
SAGGSAGGSAGIEIELNGKPVTIHPNPDGYYRVRFPGPGKSILIPGMPPDDIKDFAKELLSAGGSAGGSAGG [r11_1085_TrROS]	-0.161 ± 0.15	0.0206 ± 0.1	0.137 ± 0.15
SAGGSAMKVRLEVEEEDGKLRVRLEVEVGPPVVRVEVEAEVEEVDGELVLKVTVKVELSPEALEALSAGGSA [r15_725_TrROS_Hall]	3.47 ± 0.22	3.78 ± 0.15	3.78 ± 0.11
SAGGSAGGSYYPIEDPNGMKIWVEPDPDNGMYRIRIQFPEGKKVERTFPPGMPLDDIPIKIKDSAGGSAGGS [r12_261_TrROS]	0.688 ± 0.094	0.434 ± 0.24	-0.0445 ± 0.38
SAGGMLTYTTEYDPRGVLTVREYDPSTSKPISTHIIELGPEPVPPPVPGFPQVTPSGELRLVEDPAGPSAGG [r13_9_JUSTAS]	-0.178 ± 0.12	-0.0536 ± 0.15	-0.0943 ± 0.33
SAYYIIIKIENPNDGKPFIIMIPGNNIHIFDPDNGKPVEIEVDGDKIEIKFNNRPVTVKPLEVIPPEAISAG [r14_208_TrROS]	1.54 ± 0.11	2.15 ± 0.23	2.42 ± 0.04
SAGWYYIIIIKHDNKPIVFVIPPEGMPPEGIRDQISEMLGMPPDNVEIDDIVPFDDNQDAEEAVKEALDSAG [r5_900_TrROS]	1.53 ± 0.067	2.09 ± 0.22	2.33 ± 0.14
SSYTVLEEKVESDPNKDSLTYLTLKTPDGRELTVTEPVKKVDDSWITNSTLTDPVGGRTTTSTTTVKLSGSA [r9_269_JUSTAS]	-0.977 ± 0.29	-0.487 ± 0.13	-0.409 ± 0.17
SAGGSAGGSAPLPPLTPEQVKALVEELKKKGYKVKKVTVVEVNGELYVFVEVDGKLYRIKVSAGGSAGGSAG [r3_395_TrROS_Hall]	3.47 ± 0.069	4.23 ± 0.064	4.47 ± 0.12
SAGGSAGGSMETITLPEDVKVEVVEVEPGSVIEVEFEDGLVARVRIDPENLEKVEIEVFPKEESAGGSAGGS [r12_648_TrROS_Hall]	-0.0965 ± 0.16	0.694 ± 0.17	0.826 ± 0.16
SAGGSAGGSAGGKVITVELPDDVTVTFFIPEDPDIVPVEVTPPDGSTLTLPAKDIRELLGSAGGSAGGSAGG [r7_769_TrMRF]	0.159 ± 0.049	0.364 ± 0.1	0.49 ± 0.12
SAGGSAGGKKTYRLEITIYNKDGKEIKKIEIEAETEEEALEAAKKLQEEAKKKGLKVEIKVEKVSAGGSAGG [r6_285_TrROS_Hall]	4.2 ± 0.21	4.72 ± 0.15	4.7 ± 0.068
SAGGSAGGSAGMSALVLKVKIYYPKELFSPEEIEKIKSARIEVEPFLVEVKIDPETGELGSAGGSAGGSAGG [r17_310_TrMRF]	1.84 ± 0.03	2.38 ± 0.061	2.744 ± 0.021
SAGGSAGGSAGGWDVEIEPFPDGFIFITAEGPNGRKLVIVVMVVPEGKLMYMIVPLDDLSAGGSAGGSAGGS [r10_140_TrROS]	2.35 ± 0.095	3.34 ± 0.19	3.71 ± 0.097
SAGGSAVPTVRATFRYPDGLVAELEVPVLPDGTPRVVLRVGGVEREVSLEELARLPPEFELVSVDPSAGGSA [r2_431_TrMRF]	0.517 ± 0.073	0.826 ± 0.072	0.996 ± 0.087
SAAMLFEKKTGIKVDVSLVPPEQISQLPPSYTVTPEGDVVVVTTVTTLPLSSYPVKLPPVYDPNTLKLLSAG [r14_126_JUSTAS]	0.146 ± 0.12	-0.0133 ± 0.11	-0.376 ± 0.19
GKAEVVRVEYDPETGALRVVLRREGADVVLEVDPETGVARVYFPADPRVLEFEFDTLEEAVDAAVALLEAGS [r1_177_TrMRF]	3.59 ± 0.17	4.36 ± 0.14	4.66 ± 0.14
SAGGSAMTVVKVTLKSPSGTTTVTLPAEEWERFLAAPEVSKTWTLTEVVEEEEPPPELDPEAVELGSAGGSA [r15_460_JUSTAS]	0.626 ± 0.11	0.864 ± 0.3	1.12 ± 0.15
SAGGSAGGSAVLDPSSPRPFEIVEVRRVRFEATVSFAGRPRKLEIEVDLLLVRDPSNGRIGSAGGSAGGSAG [r3_391_TrMRF]	2.19 ± 0.04	3.14 ± 0.15	3.54 ± 0.049

Sequence	folding stability dG unfold [1] [kcal/mol]	folding stability dG unfold [2] [kcal/mol]	folding stability dG unfold [3] [kcal/mol]
SAGGSAGGSAGGSAKITIEYNPETNTLTVTITLENGEKVEITVPPNATLEEIEELAKKASAGGSAGGSAGGS [r4_205_TrROS_Hall]	3.41 ± 0.28	3.04 ± 0.3	2.49 ± 0.11
SAGGSAGGSAGGKTIRFKAKSPEEIAEKIKKGEEILTPDGKPVKITKVEPLPDGSVLITGSAGGSAGGSAGG [r11_48_TrMRF]	0.0865 ± 0.17	0.46 ± 0.081	0.588 ± 0.18
SAGGSAGGSAWIVIPAEDIKENLDEIEFRNGDGQEYRIKVDVQEHGDRPYVMIDIVPPGQPISAGGSAGGSA [r18_447_TrROS]	-0.413 ± 0.28	0.472 ± 0.18	0.882 ± 0.15
SAGWRQILDMARNMLENGHMFRIEWTGPGGKPQEFRIPLDDIETLLDNWPDPDDIRSVDIEVYPPGEPISAG [r5_957_TrROS]	1.72 ± 0.021	2.22 ± 0.062	2.45 ± 0.056
SAGGSAGGSAGKKKVLMTVDEIEKKLGKKIKPGSLVLVEVENGKVKKIEIFDVKKKPKKKSAGGSAGGSAGG [r11_616_TrROS_Hall]	0.943 ± 0.09	1 ± 0.21	1.07 ± 0.076
SAGGSAGGKYQEFEYMIMFPDGGMFRVKIEYSPNPGQVKIKIEFPGGEREITIPPGAPITIMPMSAGGSAGG [r6_927_TrROS]	3.17 ± 0.23	2.74 ± 0.23	2.41 ± 0.054
SAGGSAMPLLIVDKNNNVTLISASSPEELEELLKKYNIKKIEPFPFPDGKALVFIAEYPDGIIYSGSAGGSA [r15_632_TrMRF]	1.3 ± 0.02	1.52 ± 0.049	1.65 ± 0.047
MEPPPVVVLEIEIEVPAEDEELRNMTAEELAARLAEELEALPGLKVVSVEVVEVEERPDGTLRVRIRVTIES [r1_484_TrROS_Hall]	3.69 ± 0.47	3.57 ± 0.79	2.32 ± 0.14
SAGGSAGGSAMPGKTYRVRIRLYNEETGELVEERELEVETLDELKEAAEKEGWKIVEIEVESAGGSAGGSAG [r3_423_TrROS_Hall]	3.14 ± 0.14	3.36 ± 0.19	3.49 ± 0.11
SAGGSAGGSAGGSMVKVEKNGEGVVTTTTKYFFYPSTGKWSSETITTTKKVPKDEPFPLSAGGSAGGSAGGS [r4_215_JUSTAS]	-0.159 ± 0.14	-0.0856 ± 0.23	-0.0539 ± 0.33
SAGGSAGGSTPELLKKLPPGAKVEVETRLVTNEDGSVYKVVKIKIVDKKTNKTLELELVVKLPSAGGSAGGS [r12_892_TrROS_Hall]	2.13 ± 0.041	1.96 ± 0.07	1.65 ± 0.052
SAGGSGMVRQEHEYRGPNGWHMRSEMYYSPENGMMNMEMEWVPVIKLPEDDPAKLKKLLAKEGIPISAGGSA [r2_304_TrROS]	0.119 ± 0.16	0.803 ± 0.17	1.19 ± 0.099
SAGATFKPGQTVTVVEVKVEVSVSLSRNADGSVSLSVSVRVEVKTTTVTLPEPATVTLPPGVKSLEDLLSAG [r5_770_TrROS_Hall]	2.37 ± 0.097	3.27 ± 0.089	3.73 ± 0.096
SAGGSLPELLKLAKELAKKLGAKDLTAKESGEITIKSPENITITVSTEDGEPVVTINNTSTSSTIPLSAGGS [r16_296_JUSTAS]	-0.36 ± 0.32	-0.18 ± 0.26	-0.185 ± 0.22
SPKITIDVETNKNGRGYIRFKFNGREREIRIPSNMTPEGAKEKARDIANTLQKRYQENGRPLKIEEIEIYSA [r9_751_TrROS]	1.49 ± 0.089	1.36 ± 0.17	1.47 ± 0.13
SAGGSAGGSAGKKKVKLVEFDEETGYALLEVEDEETGETKLVLVPMTAEELEALPNIEVLSAGGSAGGSAGG [r17_46_TrROS_Hall]	2.14 ± 0.24	2.08 ± 0.24	1.91 ± 0.079
SAGGMKVIELTVDEIKELADKLKENKNLKATIYVNGKKVELEFDTVEDALKALKVKPGDTVLIEIEPSAGGS [r16_377_TrROS_Hall]	2.6 ± 0.051	3.48 ± 0.068	3.88 ± 0.07
SAPKRYYIKIEIYDNGKKQEITIPIGATIKNPGGKEYTYPVDSPEDLEEALNDLFPPGFPIKIDDVHPPSAG [r14_41_TrROS]	0.517 ± 0.042	0.973 ± 0.11	1.21 ± 0.17
SAGGSAGGSAGSLELEFEFPKDTPLDKIIEELKKLIPEKDPKIEILKVEEKEGGLWIKARVSSAGGSAGGSA [r18_360_TrMRF]	3.55 ± 0.085	3.26 ± 0.05	3.11 ± 0.042
SMPEVRVEEVTIELEFTLPDGRTVRVEIRLTRVTLPDGRVFTRLEIKVEVPEEDEEARKLLKELLEELLSSA [r9_908_TrROS_Hall]	4.52 ± 0.14	4.69 ± 0.12	4.75 ± 0.13
SAGGSAGGSAGPEVRIELERDEDGRLRLRATFKLEDGKEVRVEVEFDLKTKKLTVKIEPVSAGGSAGGSAGG [r11_107_TrROS_Hall]	3.83 ± 0.19	4.63 ± 0.39	4.8 ± 0.41
